From patent publication US20220267443A1 (AGENUS, published 2022)

Key:
[1] = target: T1, human FcγRIIB expressed on CHO cells (human, UniProt P31994 43-310); assay: flow cytometry on CHO cells expressing human FcγRIIB
T1 construct: whole, on cells; also called rCHO-huFcγRIIB+
T1 sequence (looked up): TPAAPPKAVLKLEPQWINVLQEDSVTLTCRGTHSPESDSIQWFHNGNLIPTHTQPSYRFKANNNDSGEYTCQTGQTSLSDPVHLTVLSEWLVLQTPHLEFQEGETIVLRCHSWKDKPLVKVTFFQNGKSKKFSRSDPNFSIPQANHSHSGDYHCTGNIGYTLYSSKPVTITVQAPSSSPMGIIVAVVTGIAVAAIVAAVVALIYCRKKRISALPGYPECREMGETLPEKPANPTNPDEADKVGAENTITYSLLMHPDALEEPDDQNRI
Description: (§1) The binding of anti-CTLA-4 antibodies to human FcγRIIA, FcγRIIB, and FcγRIIIA expressed on the surface of CHO cells was measured by flow cytometry. Briefly, CHO cells were transfected with cDNA encoding for human FcγRIIA^H131, FcγRIIB, or FcγRIIIA^V158, generating the following CHO cell lines: rCHO-huFcγRIIA⁺, rCHO-huFcγRIIB⁺, and rCHO-huFcγRIIIA⁺. Binding of a dose titration of antibodies ranging from 0.0056-1000 μg/ml was performed and the primary antibodies were detected with an anti-human F(ab′) secondary antibody conjugated with Phycoerythrin (PE) (Jackson Immune Research). The samples were tested by flow cytometry and the PE mean fluorescence intensity (MFI) values were analyzed and used to generate binding curves. The antibodies tested were AGEN1884w, AGEN2041w, a reference anti-CTLA-4 IgG₁ antibody, and an IgG₁ isotype control antibody. AGEN1884w produced in two different growth media was used in this study: the growth media CD FortiCHO™ from Life Technologies Inc./Thermo (AGEN1884w-FortiCHO) and the growth media PowerCHO™ 2 from Lonza (AGEN1884w-PowerCHO). The reference anti-CTLA-4 IgG₁ antibody contains a different IgG₁ allotype from the one in AGEN1884w. The IgG₁ isotype control antibody was only tested at 1000 μg/ml.

[2] = target: T2, human FcγRIIIA^V158 expressed on cells (human, UniProt P08637 17-254); assay: flow cytometry on CHO cells expressing human FcγRIIIA^V158
T2 construct: whole, on cells; also called rCHO-huFcγRIIIA+
Description: as §1

[3] = target: T3, recombinant cynomolgus CTLA-4-Fc (Sino Biological, #90213-C02H) (cynomolgus, UniProt P16410 36-161 (human entry)); assay: suspension array (Luminex) selectivity assay as in Section 6.1.3
T3 construct: Bought protein; also called recombinant cynomolgus (rc) CTLA-4; not shown: Fc part of the bought fusion protein

[4] = target: T4, rhBTLA-Fc (Sino Biological, #11896-H02H) (human, UniProt Q7Z6A9 31-157); assay: as above
T4 construct: Bought protein; also called recombinant human BTLA; not shown: Fc part of the bought fusion protein
T4 sequence: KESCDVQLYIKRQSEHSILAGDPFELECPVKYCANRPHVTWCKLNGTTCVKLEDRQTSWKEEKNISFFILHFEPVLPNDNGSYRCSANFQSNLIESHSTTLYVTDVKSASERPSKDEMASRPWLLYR

[5] = target: T5, rhICOS-Fc (R&D, #169-CS-050) (human, UniProt Q9Y6W8 21-141); assay: as above
T5 construct: Bought protein; also called recombinant human ICOS; not shown: Fc part of the bought fusion protein
T5 sequence: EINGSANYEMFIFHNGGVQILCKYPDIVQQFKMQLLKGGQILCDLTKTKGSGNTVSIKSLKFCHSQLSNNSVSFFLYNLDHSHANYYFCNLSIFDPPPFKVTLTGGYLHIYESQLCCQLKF

[6] = target: T6, rhPD-1-Fc (R&D Systems, #1086-PD) (human, UniProt Q15116 25-167); assay: as above
T6 construct: Bought protein; also called recombinant human PD-1; not shown: Fc part of the bought fusion protein

[7] = target: T7, rhCD28-Fc (R&D, #342-CD-200) (human, UniProt P10747 19-152); assay: as above
T7 construct: Bought protein; also called recombinant human CD28; not shown: Fc part of the bought fusion protein
T7 sequence (P10747 19-152 limits assumed): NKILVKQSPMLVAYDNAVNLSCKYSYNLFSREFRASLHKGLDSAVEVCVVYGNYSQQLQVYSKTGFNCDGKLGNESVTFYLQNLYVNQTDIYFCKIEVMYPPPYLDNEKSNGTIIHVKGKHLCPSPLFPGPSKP

T2 sequence (P08637 17-254 F176V limits assumed): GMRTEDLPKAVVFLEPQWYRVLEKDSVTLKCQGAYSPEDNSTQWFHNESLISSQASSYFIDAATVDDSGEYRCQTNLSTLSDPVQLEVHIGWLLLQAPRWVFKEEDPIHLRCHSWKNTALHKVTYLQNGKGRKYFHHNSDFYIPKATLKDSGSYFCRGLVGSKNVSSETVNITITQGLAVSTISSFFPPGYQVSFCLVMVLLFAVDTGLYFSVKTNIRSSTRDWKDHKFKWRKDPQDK
T6 sequence (Q15116 25-167 limits assumed): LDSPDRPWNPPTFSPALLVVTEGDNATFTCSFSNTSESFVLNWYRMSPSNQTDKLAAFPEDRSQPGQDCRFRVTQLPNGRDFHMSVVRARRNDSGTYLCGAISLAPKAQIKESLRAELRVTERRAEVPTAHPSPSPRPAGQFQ
T3 sequence (P16410 other isoform, or with tags, fused parts or gaps C02H C02H limits assumed): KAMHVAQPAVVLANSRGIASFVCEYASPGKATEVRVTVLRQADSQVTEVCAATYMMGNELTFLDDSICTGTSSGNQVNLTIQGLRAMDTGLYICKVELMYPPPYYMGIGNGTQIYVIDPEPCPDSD

B1: AGEN2041w (antibody, human IgG2, kappa)
heavy: EVQLVESGGGLVKPGGSLRLSCAASGFTFSSYSMNWVRQAPGKGLEWVSSISSSSSYIYYADSVKGRFTISRDNAKNSLYLQMNSLRAEDTAVYYCARVGLMGPFDIWGQGTMVTVSSASTKGPSVFPLAPCSRSTSESTAALGCLVKDYFPEPVTVSWNSGALTSGVHTFPAVLQSSGLYSLSSVVTVPSSNFGTQTYTCNVDHKPSNTKVDKTVERKCCVECPPCPAPPVAGPSVFLFPPKPKDTLMISRTPEVTCVVVDVSHEDPEVQFNWYVDGVEVHNAKTKPREEQFNSTFRVVSVLTVVHQDWLNGKEYKCKVSNKGLPAPIEKTISKTKGQPREPQVYTLPPSREEMTKNQVSLTCLVKGFYPSDIAVEWESNGQPENNYKTTPPMLDSDGSFFLYSKLTVDKSRWQQGNVFSCSVMHEALHNHYTQKSLSLSPG
light: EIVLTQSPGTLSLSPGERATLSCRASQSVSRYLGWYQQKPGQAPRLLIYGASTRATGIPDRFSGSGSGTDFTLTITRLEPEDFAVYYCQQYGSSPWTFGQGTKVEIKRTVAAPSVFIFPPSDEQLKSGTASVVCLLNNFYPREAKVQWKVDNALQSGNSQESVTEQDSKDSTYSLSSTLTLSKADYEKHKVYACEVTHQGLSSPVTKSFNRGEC
notes: Human IgG2 version of AGEN1884w
**Q.** What does the source list for B1?
**A.** binding result [1]: binds; binding result [2]: binds; binding result [3]: binds; binding result [4]: no binding; binding result [5]: no binding; binding result [6]: no binding; binding result [7]: no binding
